Experimental data published in US20160355553A1 (Janssen / Centocor, published 2016).

What was measured:
[1] = molecular target: mini1 cluster11 (A/Brisbane/59/2007) (influenza A virus H1N1, UniProt A8C8J4 18-565); experiment: FACS on HEK293F
[2] = molecular target: mini2 cluster11 (A/Brisbane/59/2007) (influenza A virus H1N1, UniProt A8C8J4 18-565); experiment: FACS on HEK293F
[3] = molecular target: mini3 cluster11 (A/Brisbane/59/2007) (influenza A virus H1N1, UniProt A8C8J4 18-565); experiment: FACS on HEK293F
H3 Mini-HA cluster 1 = H3 Mini-HA cluster 1 (influenza A virus H3N2, UniProt O11283 17-566); experiment: FACS on HEK293F [D00010 FIG. 8B]
H3 Mini-HA cluster 1+2 = H3 Mini-HA cluster 1+2 (influenza A virus H3N2, UniProt O11283 17-566); experiment: FACS on HEK293F [D00010 FIG. 8B]
H3 Mini-HA cluster 1+3 = H3 Mini-HA cluster 1+3 (influenza A virus H3N2, UniProt O11283 17-566); experiment: FACS on HEK293F [D00010 FIG. 8B]
H3 Mini-HA cluster 1+4 = H3 Mini-HA cluster 1+4 (influenza A virus H3N2, UniProt O11283 17-566); experiment: FACS on HEK293F [D00010 FIG. 8B]
H3 Mini-HA cluster 1+6 = H3 Mini-HA cluster 1+6 (influenza A virus H3N2, UniProt O11283 17-566); experiment: FACS on HEK293F [D00010 FIG. 8B]
H3 Mini-HA cluster 1+7 = H3 Mini-HA cluster 1+7 (influenza A virus H3N2, UniProt O11283 17-566); experiment: FACS on HEK293F [D00010 FIG. 8B]
H3 Mini-HA cluster 1+8 = H3 Mini-HA cluster 1+8 (influenza A virus H3N2, UniProt O11283 17-566); experiment: FACS on HEK293F [D00010 FIG. 8B]
H3-mini2 = H3-mini2 (influenza A virus H3N2, UniProt O11283 17-566); experiment: FACS on HEK293F [D00012 FIG. 9B]
H3-mini2-cl9+10 = H3-mini2-cl9+10 (influenza A virus H3N2, UniProt O11283 17-566); experiment: FACS on HEK293F [D00012 FIG. 9B]
H3-mini2-cl9+11 = H3-mini2-cl9+11 (influenza A virus H3N2, UniProt O11283 17-566); experiment: FACS on HEK293F [D00012 FIG. 9B]
H3-mini2-cl9+10+11 = H3-mini2-cl9+10+11 (influenza A virus H3N2, UniProt O11283 17-566); experiment: FACS on HEK293F [D00012 FIG. 9B]
H3-mini2-cl9+10+11-tri = H3-mini2-cl9+10+11-tri (influenza A virus H3N2); experiment: FACS on HEK293F [D00012 FIG. 9B]
H3mini2-cl9+10+11-GCN4 = H3mini2-cl9+10+11-GCN4 (influenza A virus H3N2); experiment: FACS on HEK293F [D00012 FIG. 9B]
H3-mini2-cl9+10+11+12 = H3-mini2-cl9+10+11+12 (influenza A virus H3N2, UniProt O11283 17-566); experiment: FACS on HEK293F [D00012 FIG. 9B]
H3-mini2-cl9+10+12 = H3-mini2-cl9+10+12 (influenza A virus H3N2, UniProt O11283 17-566); experiment: FACS on HEK293F [D00012 FIG. 9B]
[4] = molecular target: H3-mini2-cl9+10+11+12-GCN4 (influenza A virus H3N2, UniProt O11283 17-566); experiment: FACS on HEK293F [D00012 FIG. 9B]
[5] = molecular target: H3-mini2-cl9+10+11+12-tri (influenza A virus H3N2, UniProt O11283 17-566); experiment: FACS on HEK293F [D00012 FIG. 9B]
H3-mini2-cl9+13 = H3-mini2-cl9+13 (influenza A virus H3N2, UniProt O11283 17-566); experiment: FACS on HEK293F [D00012 FIG. 9B]
H3-mini2-cl9+10+11+13 = H3-mini2-cl9+10+11+13 (influenza A virus H3N2, UniProt O11283 17-566); experiment: FACS on HEK293F [D00012 FIG. 9B]
[6] = molecular target: H3-mini2-cl9+10+11+13-GCN4 (influenza A virus H3N2); experiment: FACS on HEK293F [D00012 FIG. 9B]
[7] = molecular target: H3-mini2-cl9+10+11+13-tri (influenza A virus H3N2); experiment: FACS on HEK293F [D00012 FIG. 9B]
H3-mini3-cl9+10+11+12+14 = H3-mini3-cl9+10+11+12+14 (influenza A virus H3N2, UniProt O11283 17-566); experiment: FACS on HEK293F [D00012 FIG. 9B]
H3-mini4-cl9+10+11+12+14 = H3-mini4-cl9+10+11+12+14 (influenza A virus H3N2, UniProt O11283 17-566); experiment: FACS on HEK293F [D00012 FIG. 9B]
[8] = molecular target: H3 Full-length A/Hong Kong/1/1968 (influenza A virus H3N2, UniProt Q91MA7 17-566); experiment: FACS on HEK293F [D00014 FIG. 10B]

B1: CR6261 (antibody, V domains shown)
VH: EVQLVESGAEVKKPGSSVKVSCKASGGPFRSYAISWVRQAPGQGPEWMGGIIPIFGTTKYAPKFQGRVTITADDFAGTVYMELSSLRSEDTAMYYCAKHMGYQVRETMDVWGKGTTVTVSS
VL: QSVLTQPPSVSAAPGQKVTISCSGSSSNIGNDYVSWYQQLPGTAPKLLIYDNNKRPSGIPDRFSGSKSGTSATLGITGLQTGDEANYYCATWDRRPTAYVVFGGGTKLTVLG
- binding result [1]: binds
- binding result [2]: binds
- binding result [3]: binds
- binding result (H3 Mini-HA cluster 1): no binding (tested: 5 ug/ml)
- binding result (H3 Mini-HA cluster 1+2): no binding (tested: 5 ug/ml)
- binding result (H3 Mini-HA cluster 1+3): no binding (tested: 5 ug/ml)
- binding result (H3 Mini-HA cluster 1+4): no binding (tested: 5 ug/ml)
- binding result (H3 Mini-HA cluster 1+6): no binding (tested: 5 ug/ml)
- binding result (H3 Mini-HA cluster 1+7): no binding (tested: 5 ug/ml)
- binding result (H3 Mini-HA cluster 1+8): no binding (tested: 5 ug/ml)
- binding result (H3-mini2): no binding (tested: 5 ug/ml)
- binding result (H3-mini2-cl9+10): no binding (tested: 5 ug/ml)
- binding result (H3-mini2-cl9+11): no binding (tested: 5 ug/ml)
- binding result (H3-mini2-cl9+10+11): no binding (tested: 5 ug/ml)
- binding result (H3-mini2-cl9+10+11-tri): no binding (tested: 5 ug/ml)
- binding result (H3mini2-cl9+10+11-GCN4): no binding (tested: 5 ug/ml)
- binding result (H3-mini2-cl9+10+11+12): no binding (tested: 5 ug/ml)
- binding result (H3-mini2-cl9+10+12): no binding (tested: 5 ug/ml)
- binding result [4]: no binding (tested: 5 ug/ml)
- binding result [5]: no binding (tested: 5 ug/ml)
- binding result (H3-mini2-cl9+13): no binding (tested: 5 ug/ml)
- binding result (H3-mini2-cl9+10+11+13): no binding (tested: 5 ug/ml)
- binding result [6]: no binding (tested: 5 ug/ml)
- binding result [7]: no binding (tested: 5 ug/ml)
- binding result (H3-mini3-cl9+10+11+12+14): no binding (tested: 5 ug/ml)
- binding result (H3-mini4-cl9+10+11+12+14): no binding (tested: 5 ug/ml)
- binding result [8]: no binding (tested: 5 ug/ml)
